According to the supplement of paper PMC12764529:
± gives the half width of the 95% confidence interval.

Assays:
[1] = folding stability dG unfold (combined trypsin and chymotrypsin); higher = more stable
Outline: (§1)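 Only designs with AlphaFold2 dimer inter-PAE above 15 were retained; each was a mini-protein under 80 residues with no cysteine, in a PA-tagged cDNA display construct. After digestion with trypsin and chymotrypsin and sequencing, K50 was inferred by Bayesian fitting of counts, and unfolding free energy was derived per protease or combined against a sequence-predicted unfolded-state K50 and a shared folded-state K50.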

[2] = folding stability dG unfold from chymotrypsin proteolysis; higher = more stable
Outline: as §1

[3] = folding stability dG unfold from trypsin proteolysis; higher = more stable
Outline: as §1

| Sequence | folding stability dG unfold [1] [kcal/mol] | folding stability dG unfold [2] [kcal/mol] | folding stability dG unfold [3] [kcal/mol] |
| --- | --- | --- | --- |
| SAGGSAGGSTITFFFDNPEQIEKLIEELMDKNNVEVEVEPHPDNGMPMVTFTNPNNGKEITIMSAGGSAGGS [r12_635_TrROS] | 0.54 ± 0.21 | 0.497 ± 0.23 | 0.48 ± 0.057 |
| SAGGSAGGSPSVVTLVSPDYYAEAFYFPDFVLVVLYDPEKGPPQVFLVSNENGELKFFPASEASAGGSAGGS [r12_632_TrMRF] | 2.85 ± 0.18 | 3.24 ± 0.059 | 2.28 ± 0.18 |
| SAGGMMKIRIEVENPKGEKKEIELSEEELERIKEALKEGKVLTEEELKKLIELAKEKGYKVKIVEIESAGGS [r8_159_TrROS_Hall] | 2.09 ± 0.24 | 2.37 ± 0.074 | 0.447 ± 0.077 |
| SAGGSAGGMKITVEEVKVEKKEDGSYRVRIRLKNGEVLELEFESLEEALAAAKKLGAEITEIEPSAGGSAGG [r6_84_TrROS_Hall] | 3.35 ± 0.04 | 3.54 ± 0.038 | 3.12 ± 0.058 |
| SAGGSDEVTIDFQVKYNGQPFTVRITIERDPPDGKIEIPVEISYPNPEMREPAREIARNIVRELLNSAGGSA [r2_259_TrROS] | 1.32 ± 0.095 | 1.66 ± 0.17 | 0.873 ± 0.07 |
| SAGGSAGGSAGGSAPNVKLKVEVVTVKVENAKITLPDGRTITLKPGDTVTITKVTLEPASAGGSAGGSAGGS [r4_26_TrROS_Hall] | 2.04 ± 0.22 | 2.05 ± 0.085 | 2.32 ± 0.088 |
| SAGYIRIEKDNDYYKIEFLFPPNDPSLIENLVEAIRQKGWKVKDVEVEVEPNKDGMYRVEIDFKIKPPDSAG [r5_739_TrROS] | 2.88 ± 0.17 | 3.31 ± 0.099 | 2.53 ± 0.12 |
| SAMTLEEAKKKGLVVIRVKIEVTLPNGEKREFERVIVAESLEEALEALREELEREGYKVEIVEIEIEKLSAG [r14_854_TrROS_Hall] | 2.04 ± 0.21 | 1.51 ± 0.11 | 2.76 ± 0.16 |
| SAGGSAGGSGWRPARVVRVERYRDPVNPRWYYRVEAELPDRRVTLVVPENAPVDEDGVLLIPFSAGGSAGGS [r20_49_TrMRF] | 1.35 ± 0.034 | 1.45 ± 0.042 | 1.09 ± 0.027 |
| SAGGSAGGMIIRVEFKNGEVKTFVVKSPEEAKKKLAESLGLKEDEIPLDEIKSVEILNLDEALSSAGGSAGG [r6_586_TrMRF] | 3.91 ± 0.073 | 4.1 ± 0.073 | 3.35 ± 0.1 |
| SAGGMKVATVTLLTRDPSSDRTFEVTVEVPDDIVEKGDIEEAIARAKQLAEERGYPILEVEVEVKEPPSAGG [r13_954_JUSTAS] | 0.922 ± 0.12 | 0.625 ± 0.12 | 1.13 ± 0.046 |
| SAGGSAPIKIKTADGKTITVNAKDLSLELLKKADKVIITKPDGKKIELPAGAKIKKGDTVTIKIVKSAGGSA [r15_733_TrROS_Hall] | -0.336 ± 0.33 | -0.437 ± 0.21 | 0.153 ± 0.11 |
| SAGGSAGGMTITISTGSSGLTVNITLTPPTGPPVTVTISFDPSELEEFLKELPDYEIESITVEGSAGGSAGG [r6_879_JUSTAS] | 2.8 ± 0.13 | 2.73 ± 0.15 | 2.79 ± 0.17 |
| SAMTPEELAARLAEALRREAEEAGLEIVDVRVEYDEETDTVTVEVVVRNKETGELVTRRVEIRSLEELLSAG [r14_409_TrROS_Hall] | 3.98 ± 0.1 | 3.23 ± 0.059 | 4.52 ± 0.14 |
| SAGGMKIEIEIEMTPEEVRKAIEELAKALGLKIVKVEVEVERKEDGTLRVRVTIEIEPLPEEELEPESAGGS [r8_374_TrROS_Hall] | 4 ± 0.25 | 4.32 ± 0.18 | 3.63 ± 0.16 |
| SAGGSAGGSAKIKPGEKVEITLKDGSKVIIEKKEDGKYLARIIDKKTNEVKTVPLDKIKLVSAGGSAGGSAG [r3_213_TrROS_Hall] | 1.13 ± 0.14 | 1.08 ± 0.046 | 0.99 ± 0.057 |
| SAGGSSPAARRLAKRIAKLMMKKHPPGEKRTVEIELPDGVEIKATFNNNGNIDDIEIRSPDGEPIISAGGSA [r2_84_TrROS] | 0.644 ± 0.36 | 0.482 ± 0.4 | 0.771 ± 0.17 |
| SAGGSAGGSAGGSMPIPYKIDSIEYYPPYPYYTLNVTGPENKPYTIIMSPENLENATIESAGGSAGGSAGGS [r4_51_TrMRF] | 1.05 ± 0.23 | 0.607 ± 0.19 | 1.43 ± 0.12 |
| SAGGSAGGSDETLTVTRGRTETVTVRRVERRPPAAAPPLKVTLSAVLDADGRLVSVSASVELLSAGGSAGGS [r12_727_TrROS_Hall] | 1.9 ± 0.15 | 1.88 ± 0.036 | 2.1 ± 0.05 |
| SDLEAVLAAIDAVPPGTVVRIRLTLPDGVPLEITFDAGKEEIKALLEELVKEHPDVPIGIEIEVFPPEELSA [r9_37_TrMRF] | 3.61 ± 0.081 | 3.71 ± 0.093 | 3.38 ± 0.1 |
| SAGGSAGGSAGGKIKVPPGAIILVETESGEWKEIKPGDEIELKNSKVYIFNENGEKIELPSAGGSAGGSAGG [r7_54_TrROS_Hall] | 1.28 ± 0.18 | 1.28 ± 0.092 | 0.82 ± 0.11 |
